Data on 1 molecule can be found in patent publication US20220119534A1 (DRAGONFLY THERAPEUTICS, published 2022).

One assay addresses T1, Human CLEC12A-His (human, UniProt Q5QGZ9 65-265).
T1 sequence: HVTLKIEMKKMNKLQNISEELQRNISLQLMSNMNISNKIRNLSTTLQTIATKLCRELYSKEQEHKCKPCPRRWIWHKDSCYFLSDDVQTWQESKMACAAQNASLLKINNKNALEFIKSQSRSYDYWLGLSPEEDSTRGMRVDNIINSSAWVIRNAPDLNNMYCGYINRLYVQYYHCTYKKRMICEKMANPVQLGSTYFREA
As to the kind of experiment: cell-based or functional assay.

In assay [1] the target is T2, mFc-hNKG2D (human, UniProt P26718 73-216).
T2 construct: extracellular domain; Made in house (Dragonfly Tx); the order of tag and ECD follows the name mFc-hNKG2D; also called mFc-tagged human NKG2D; not shown: mouse Fc tag
T2 sequence (looked up): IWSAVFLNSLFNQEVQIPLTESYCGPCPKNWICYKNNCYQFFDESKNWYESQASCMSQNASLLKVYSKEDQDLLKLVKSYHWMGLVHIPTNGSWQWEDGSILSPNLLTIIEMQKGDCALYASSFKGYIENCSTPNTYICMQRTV
As to the kind of experiment: SPR Biacore 8K 37 C; mFc-hNKG2D captured on anti-mFc chip, TriNKET as analyte; 1:1 kinetic fit; control sample, n=2. A general note: In SPR one partner is held on a chip, and binding of the other changes the refractive index at the surface.

Assay [2] addresses T2, mFc-hNKG2D. As to the kind of experiment: SPR Biacore 8K 37 C; mFc-hNKG2D captured on anti-mFc chip, TriNKET as analyte; steady state fit; un-oxidized control.
Protocol: Association was monitored for 60 seconds and dissociation was monitored for 60 seconds. Surfaces were regenerated between cycles with three pulses of 10 mM glycine-HCl, pH 1.7 injected for 20 seconds at 100 μL/min. HBS-EP+ (1×) buffer was used throughout the experiment. Data were analyzed using Biacore 8K Insight evaluation software (GE Healthcare).

B1: F3'-1602 TriNKET (bispecific antibody, human IgG1, kappa)
chain: QLQLQESGPGLVKPSETLSLTCTVSGFSLTNYGLHWIRQPPGKCLEWIGVIWSGGKTDYNPSLKSRVTISKDTSKNQFSLKLSSVQAADTAVYYCAKYDYDDSLDYWGQGTLVTVSSGGGGSGGGGSGGGGSGGGGSDIQMTQSPSSLSASVGDRVTITCHASQNINFWLSWYQQKPGKAPKLLIYEASNLHTGVPSRFSGSGSGTRFTLTISSLQPEDIATYYCQQSHSYPLTFGCGTKLEIKGSDKTHTCPPCPAPELLGGPSVFLFPPKPKDTLMISRTPEVTCVVVDVSHEDPEVKFNWYVDGVEVHNAKTKPREEQYNSTYRVVSVLTVLHQDWLNGKEYKCKVSNKALPAPIEKTISKAKGQPREPRVYTLPPCRDELTKNQVSLTCLVKGFYPSDIAVEWESNGQPENNYKTTPPVLVSDGSFTLYSKLTVDKSRWQQGNVFSCSVMHEALHNHYTQKSLSLSPG
heavy: EVQLVESGGGLVKPGGSLRLSCAASGFTFSSYSMNWVRQAPGKGLEWVSSISSSSSYIYYADSVKGRFTISRDNAKNSLYLQMNSLRAEDTAVYYCARGAPIGAAAGWFDPWGQGTLVTVSSASTKGPSVFPLAPSSKSTSGGTAALGCLVKDYFPEPVTVSWNSGALTSGVHTFPAVLQSSGLYSLSSVVTVPSSSLGTQTYICNVNHKPSNTKVDKKVEPKSCDKTHTCPPCPAPELLGGPSVFLFPPKPKDTLMISRTPEVTCVVVDVSHEDPEVKFNWYVDGVEVHNAKTKPREEQYNSTYRVVSVLTVLHQDWLNGKEYKCKVSNKALPAPIEKTISKAKGQPREPQVCTLPPSRDELTENQVSLTCLVKGFYPSDIAVEWESNGQPENNYKTTPPVLDSDGSFFLYSWLTVDKSRWQQGNVFSCSVMHEALHNHYTQKSLSLSPG
light: DIQMTQSPSSVSASVGDRVTITCRASQGISSWLAWYQQKPGKAPKLLIYAASSLQSGVPSRFSGSGSGTDFTLTISSLQPEDFATYYCQQGVSFPRTFGGGTKVEIKRTVAAPSVFIFPPSDEQLKSGTASVVCLLNNFYPREAKVQWKVDNALQSGNSQESVTEQDSKDSTYSLSSTLTLSKADYEKHKVYACEVTHQGLSSPVTKSFNRGEC
notes: Trispecific F3' format: CLEC12A scFv-Fc paired with NKG2D Fab-Fc; Stressed and control samples of the stability studies are the same molecule; also called AB0237
As a reminder, the Kd is the equilibrium constant for the complex coming apart. The low end stands for tighter binding, the high end for weaker binding. Usually koff stands for a measure of how fast the partners let go of each other. A high value points to fast dissociation. One may read the kon as the second-order rate constant of association. The low end stands for slow association, the high end for fast association. As to B1, in the assay with Human CLEC12A-His, the “EC50 (nM), lysis of CLEC12A+ PL21 cells by KHYG-1-CD16a cells; HST formulation, 40 C, 4 wks” value turned out to be 1.21 nM and the “EC50 (nM), lysis of CLEC12A+ PL21 cells by KHYG-1-CD16a cells; control sample” value is 0.17 nM. In the assay with mFc-hNKG2D [1], the Kd is 790 nM, the koff was found to be 0.153 s⁻¹ and the kon stood at 193000 M⁻¹ s⁻¹. The molecule further gave a Kd with mFc-hNKG2D [2] of 759 nM.
